These results are taken from patent US11976099B2, “Compositions and methods for treatment of bone associated diseases” (THE NATIONAL INSTITUTE FOR BIOTECHNOLOGY IN THE NEGEV LTD., priority 2016, dated 2024).

Format in all cases: physicochemical
Data set [1] can be described thus: BS^3 chemical cross linking / SDS-PAGE dimerization assay. The conditions noted are these: for dimerization after BS^3 cross linking: Example 4, BS^3 up to 2500 μM, FIG. 8; for monomer/dimer bands after BS^3 cross linking: Example 11, BS^3 0-2500 μM, SDS-PAGE, FIG. 16A. The protocol: Then, Tris was added to a final concentration of 30 mM and the mixture was incubated for 15 min at room temperature. Samples were denaturized and loaded on 15% SDS-PAGE. The gels were stained with coomassie blue (InstantBlue, Expedeon, CA, USA) and visualized with MiniBis pro (DNR Bio-Imaging Systems, Jerusalem, Israel).
BS^3 crosslinking assay—Human (4 μg) and murine M-CSFWT (1 μg), M-CSFC31S (1 μg) and M-CSFC31S,M27R (2.5 μg) were incubated with different concentrations of BS^3 [bis(sulfosuccinimidyl)suberate] (ThermoFisher Scientific, MA, USA) cross linker (0, 25 μM, 100 μM, 250 μM, 500 μM, 1000 μM and 2500 μM) for 30 min at room temperature. Then, […] was added to a final concentration of 30 mM, and the mixture was incubated for 15 min at room temperature. Samples were denaturized with sample buffer, boiled, and loaded on 15% SDS-PAGE for protein separation. The gels were stained with InstantBlue staining (Expedeon, CA, USA) for 40 min, followed by two washing steps with double distilled water. The gels were visualized with MiniBis pro (DNR Bio-Imaging Systems, Jerusalem, Israel).
Experiments were conducted in order to verify that the purified variants are incapable of dimerizing. The purified variants were incubated with a cross linker reagent (BS^3 [bis(sulfosuccinimidyl)suberate]) to enhance and visualize non-covalent intermolecular interactions. Following incubation, the reactions were stopped and the samples were loaded in denaturized conditions on a protein gel.
To validate the structural and computational analysis and to verify that M-CSFC31S,M27R is indeed a monomer, several biophysical assays were conducted. First, purified murine and human M-CSFWT, M-CSFC31S and M-CSFC31S,M27R were crosslinked via lysine residues using different amounts of BS^3 reagent [bis(sulfosuccinimidyl)suberate], and the proteins sizes were evaluated using SDS-PAGE (FIG. 16A). Murine M-CSFWT served as positive control, since it has a lysine in the dimerization site (K68), which facilitates the intermolecular cross-linking of the two monomers in the dimer. […] The dimer band became more prominent at higher BS^3 concentrations. It is likely that the non-covalent dimerization allows other lysines in M-CSFC31S to come into close proximity and crosslink.

Data set [2] is described as follows: Small angle X-ray scattering (SAXS) analysis. The conditions noted are these: 3, 5 and 7 mg/ml. The protocol: The scattering intensity was recorded in the interval 0.012<q<0.7 Å−1. The measurements were performed under vacuum at 25° C. All three M-CSF variants were measured at concentrations of 3, 5 and 7 mg/ml. The scattering of the buffer was also measured and subtracted from the scattering of the samples. The magnitude of the scattering vector is described by the following equation: […]
Values for the radius of gyration (Rg) were derived from the small angle part of the SAXS profile (Guinier region, qRg<1.0), in PRIMUS [43]. In this region, Guinier approximation is applicable:
Rg values were also derived using in-house scripts designed to perform an automatic search for the best fitting parameters using GNOM (Svergun, D. I. (1992). J. Appl. Crystallogr. 25, 495-503). CRYSOL ([…] and Koch, M. H. J. (1995) J. Appl. Crystallogr. 28, 768-773) was used to compute the theoretical SAXS spectra based on the M-CSFWT crystal structure (PDB ID code: 3UF2). These spectra served as a reference for reconstruction of the experimental SAXS data. GASBOR (Svergun, D. I., Petoukhov, M. V. and Koch, M. H. J. (2001) Biophys. J. 80, 2946-2953) was used to reconstruct the molecular envelope based on the best GNOM fit obtained from the in-house script. Ten models were calculated for each sample and averaged using DAMAVER (Volkov, V. V. and Svergun, D. I. (2003) J. Appl. Crystallogr. 36, 860-864).
Next, the size of the M-CSF variants was evaluated in solution. M-CSFWT, M-CSFC31S and M-CSFC31S,M27R at concentrations of 0.5 mg/ml were subjected to dynamic light scattering (DLS) analysis at an angle of 90°. The peaks for the most abundant species in each sample were compared (FIG. 16B), and an estimated hydrodynamic radius was calculated from each peak. […] To confirm that the oligomeric state of M-CSFC31S,M27R is not concentration dependent, all M-CSF variants were subjected to SAXS measurements at concentrations of 3, 5 and 7 mg/ml. Of note is that the Rg values remained within a similar range for M-CSFWT and M-CSFC31S. […]

Data set [3] can be described thus: Dynamic light scattering (DLS). The following applies: 0.5 mg/ml; angle of 90°. The protocol:
Dynamic light scattering (DLS)—The hydrodynamic radii of M-CSFWT, M-CSFC31S and M-CSFC31S,M27R were determined using DLS. The proteins, in a concentration of 0.5 mg/ml, were filtered to remove aggregates and contaminants. Light scattering was measured at an angle of 90° three times, in two different experiments, resulting in a total of six measurements. […] An analysis of the solution was conducted to verify that the most abundant specie was in the size range of 1-10 nm. The peak for this specie was compared for the three different proteins, and the hydrodynamic radius of each was determined as the maximum of the peak.
Next, the size of the M-CSF variants was evaluated in solution. M-CSFWT, M-CSFC31S and M-CSFC31S,M27R at concentrations of 0.5 mg/ml were subjected to dynamic light scattering (DLS) analysis at an angle of 90°. The peaks for the most abundant species in each sample were compared (FIG. 16B), and an estimated hydrodynamic radius was calculated from each peak. […] To confirm that the oligomeric state of M-CSFC31S,M27R is not concentration dependent, all M-CSF variants were subjected to SAXS measurements at concentrations of 3, 5 and 7 mg/ml. Of note is that the Rg values remained within a similar range for M-CSFWT and M-CSFC31S. There was a slight increase in the Rg value of M-CSFC31S,M27R at higher concentrations, presumably due to an increase in interparticle interactions. […] To illustrate the oligomeric states of these three proteins in solution, low-resolution structures were reconstructed from the SAXS data. Ab initio models were reconstructed from SAXS data using the computer program GASBOR and were averaged by the computer program DAMAVER. The crystal structure of the M-CSF dimer and the structure of the monomer were aligned with the obtained SAXS models (yellow, M-CSFWT; green, M-CSFC31S; cyan, M-CSFC31S,M27R) using PyMOL (http://www.pymol.org).

B1: 5.6: bispecific M-CSFRGD variant from sort five; M-CSFM loop replaced by XXXRGDXXX motif; binds c-FMS and αvβ3 integrin (protein)
chain: EEVSEYCSHMIGSGHLQSLQRLIDTYPRGDMCSITFEFVDQEQLKDPVCYLKKAFLLVQDIMEDTMRFRDNTPNAIAIVQLQELSLRLKSCFTKDYEEHDKACVRTFYETPLQLLEKVKNVFNETKNLLDKDWNIFSKNCNNSFAECSSQGHERQSEGS
modifications: left off: small tags and cut ends
In the case of B1, the “dimerization after BS^3 cross linking” value in data set [1] is “did not show any dimerization”.

B2: M-CSFM: 158 amino acid M-CSF with cysteine at position 31 replaced by serine (SEQ ID NO: 2) (protein)
chain: EEVSEYCSHMIGSGHLQSLQRLIDSQMETSSQITFEFVDQEQLKDPVCYLKKAFLLVQDIMEDTMRFRDNTPNAIAIVQLQELSLRLKSCFTKDYEEHDKACVRTFYETPLQLLEKVKNVFNETKNLLDKDWNIFSKNCNNSFAECSSQGHERQSEGS
As for B2, in data set [2], the “oligomeric state in solution” value is recorded as “exist as dimers in solution”. In data set [1], the “dimerization after BS^3 cross linking” value is reported as “some dimerization interactions”; the “monomer/dimer bands after BS^3 cross linking” value (“monomer/dimer bands” below) is “mixture of monomer and dimer bands”. The same molecule showed a hydrodynamic radius in data set [3] of 3.56±0.24 nm.

B3: M-CSFC31S,M27R: M-CSF double mutant containing both C31S and M27R; monomeric, monospecific c-FMS antagonist (protein)
chain: EEVSEYCSHMIGSGHLQSLQRLIDSQRETSSQITFEFVDQEQLKDPVCYLKKAFLLVQDIMEDTMRFRDNTPNAIAIVQLQELSLRLKSCFTKDYEEHDKACVRTFYETPLQLLEKVKNVFNETKNLLDKDWNIFSKNCNNSFAECSSQGHERQSEGS
As for B3, the “oligomeric state in solution” value in data set [2] was “is a monomer”. Also, the “monomer/dimer bands” value in data set [1] is “did not produce any band corresponding to a dimer”. In data set [3], this molecule came in with a hydrodynamic radius of 2.94±0.10 nm.

B4: M-CSFWT: wild-type human M-CSF, disulfide-bond-linked homodimer which binds and activates c-FMS (protein)
chain: EEVSEYCSHMIGSGHLQSLQRLIDSQMETSCQITFEFVDQEQLKDPVCYLKKAFLLVQDIMEDTMRFRDNTPNAIAIVQLQELSLRLKSCFTKDYEEHDKACVRTFYETPLQLLEKVKNVFNETKNLLDKDWNIFSKNCNNSFAECSSQGHERQSEGS
In the case of B4, in data set [2], the “oligomeric state in solution” value is listed as “exist as dimers in solution”. Moreover, the “monomer/dimer bands” value in data set [1] is on record as “only a faint band in a size that corresponds to a dimer”. In data set [3], this molecule displayed a hydrodynamic radius of 3.73±0.19 nm.
